Source: article PMC12069617

Assays:
Assay in all cases: SEC-MALS
[1] = molecular target: PR-A (progesterone receptor isoform A);SRC3 (steroid receptor coactivator 3) (human?;human?, UniProt P06401;Q9Y6Q9 165-933;1-1424, |)
[2] = molecular target: PR-A (progesterone receptor isoform A) (UniProt P06401 165-933)
[3] = molecular target: PR-B (progesterone receptor isoform B);SRC3 (steroid receptor coactivator 3);p300 (human?;human?;human?, UniProt P06401;Q9Y6Q9;Q09472 1-933;1-1424;1-2414, ||)
[4] = molecular target: PR-A (progesterone receptor isoform A);SRC3 (steroid receptor coactivator 3);p300 (human?;human?;human?, UniProt P06401;Q9Y6Q9;Q09472 165-933;1-1424;1-2414, ||)
[5] = molecular target: PR-B (progesterone receptor isoform B) (UniProt P06401 1-933)
[6] = molecular target: PR-B (progesterone receptor isoform B);SRC3 (steroid receptor coactivator 3) (human?;human?, UniProt P06401;Q9Y6Q9 1-933;1-1424, |)

Measured: binding result

Sequence of PR-A (progesterone receptor isoform A);SRC3 (steroid receptor coactivator 3);p300 (P06401 165-933, chain 1 of 3): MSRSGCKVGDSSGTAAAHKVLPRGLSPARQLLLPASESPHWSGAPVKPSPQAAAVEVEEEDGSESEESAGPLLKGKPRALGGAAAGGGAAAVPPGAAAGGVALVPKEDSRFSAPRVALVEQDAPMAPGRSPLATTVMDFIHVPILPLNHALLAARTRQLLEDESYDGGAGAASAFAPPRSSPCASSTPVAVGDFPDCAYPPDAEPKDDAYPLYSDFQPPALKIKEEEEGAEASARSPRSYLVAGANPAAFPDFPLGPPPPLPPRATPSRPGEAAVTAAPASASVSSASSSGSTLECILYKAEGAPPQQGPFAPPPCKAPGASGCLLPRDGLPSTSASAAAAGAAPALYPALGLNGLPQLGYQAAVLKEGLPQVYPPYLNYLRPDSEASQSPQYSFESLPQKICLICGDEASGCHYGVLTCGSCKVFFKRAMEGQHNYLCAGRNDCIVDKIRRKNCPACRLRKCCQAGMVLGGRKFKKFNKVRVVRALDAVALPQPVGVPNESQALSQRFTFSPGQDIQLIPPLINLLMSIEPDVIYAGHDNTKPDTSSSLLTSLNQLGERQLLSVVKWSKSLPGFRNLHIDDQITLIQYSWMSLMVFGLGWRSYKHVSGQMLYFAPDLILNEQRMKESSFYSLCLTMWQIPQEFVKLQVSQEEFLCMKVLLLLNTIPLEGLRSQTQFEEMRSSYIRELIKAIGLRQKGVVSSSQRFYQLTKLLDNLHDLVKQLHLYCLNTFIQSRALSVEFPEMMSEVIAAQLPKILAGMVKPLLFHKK
Sequence of PR-A (progesterone receptor isoform A);SRC3 (steroid receptor coactivator 3);p300 (Q9Y6Q9 whole entry, chain 2 of 3, canonical isoform): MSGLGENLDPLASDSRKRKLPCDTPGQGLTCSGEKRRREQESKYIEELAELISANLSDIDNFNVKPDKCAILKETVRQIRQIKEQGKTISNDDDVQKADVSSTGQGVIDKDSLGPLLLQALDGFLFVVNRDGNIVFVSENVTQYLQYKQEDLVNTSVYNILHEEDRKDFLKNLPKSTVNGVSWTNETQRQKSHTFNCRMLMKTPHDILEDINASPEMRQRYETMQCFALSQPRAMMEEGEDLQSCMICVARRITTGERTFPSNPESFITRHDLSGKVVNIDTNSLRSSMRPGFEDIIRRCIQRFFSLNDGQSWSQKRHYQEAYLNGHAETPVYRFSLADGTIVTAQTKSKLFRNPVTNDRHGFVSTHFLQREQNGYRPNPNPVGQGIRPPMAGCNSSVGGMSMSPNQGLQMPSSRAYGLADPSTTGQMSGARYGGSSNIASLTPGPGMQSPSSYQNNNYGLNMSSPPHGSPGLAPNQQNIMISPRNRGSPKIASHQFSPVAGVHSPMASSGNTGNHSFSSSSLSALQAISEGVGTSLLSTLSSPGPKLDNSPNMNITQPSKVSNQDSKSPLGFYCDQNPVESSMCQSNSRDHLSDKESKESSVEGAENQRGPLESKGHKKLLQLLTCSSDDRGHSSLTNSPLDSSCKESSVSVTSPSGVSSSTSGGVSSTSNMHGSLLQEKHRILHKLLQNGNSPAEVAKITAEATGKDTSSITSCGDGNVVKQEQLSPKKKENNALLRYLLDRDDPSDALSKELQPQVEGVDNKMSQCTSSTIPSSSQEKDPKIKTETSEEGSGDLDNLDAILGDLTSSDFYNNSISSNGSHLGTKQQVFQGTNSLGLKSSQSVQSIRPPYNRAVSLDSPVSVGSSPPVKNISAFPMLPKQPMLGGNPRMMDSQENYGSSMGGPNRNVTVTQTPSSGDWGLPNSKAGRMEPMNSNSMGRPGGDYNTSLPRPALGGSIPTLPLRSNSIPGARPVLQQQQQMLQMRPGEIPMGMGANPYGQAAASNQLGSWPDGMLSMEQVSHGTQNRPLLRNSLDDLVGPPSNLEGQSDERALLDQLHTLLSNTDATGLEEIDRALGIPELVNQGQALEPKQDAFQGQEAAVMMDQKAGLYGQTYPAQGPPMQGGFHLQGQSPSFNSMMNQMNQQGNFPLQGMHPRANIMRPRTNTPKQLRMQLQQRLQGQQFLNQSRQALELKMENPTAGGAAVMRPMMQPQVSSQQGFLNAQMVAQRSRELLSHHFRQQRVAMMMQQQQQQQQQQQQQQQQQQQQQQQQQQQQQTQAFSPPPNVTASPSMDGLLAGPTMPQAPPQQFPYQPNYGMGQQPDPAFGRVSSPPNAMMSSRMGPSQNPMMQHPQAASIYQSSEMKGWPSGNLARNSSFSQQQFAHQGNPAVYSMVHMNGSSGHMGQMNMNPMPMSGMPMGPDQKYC
Sequence of PR-A (progesterone receptor isoform A);SRC3 (steroid receptor coactivator 3);p300 (Q09472 whole entry, chain 3 of 3, canonical isoform): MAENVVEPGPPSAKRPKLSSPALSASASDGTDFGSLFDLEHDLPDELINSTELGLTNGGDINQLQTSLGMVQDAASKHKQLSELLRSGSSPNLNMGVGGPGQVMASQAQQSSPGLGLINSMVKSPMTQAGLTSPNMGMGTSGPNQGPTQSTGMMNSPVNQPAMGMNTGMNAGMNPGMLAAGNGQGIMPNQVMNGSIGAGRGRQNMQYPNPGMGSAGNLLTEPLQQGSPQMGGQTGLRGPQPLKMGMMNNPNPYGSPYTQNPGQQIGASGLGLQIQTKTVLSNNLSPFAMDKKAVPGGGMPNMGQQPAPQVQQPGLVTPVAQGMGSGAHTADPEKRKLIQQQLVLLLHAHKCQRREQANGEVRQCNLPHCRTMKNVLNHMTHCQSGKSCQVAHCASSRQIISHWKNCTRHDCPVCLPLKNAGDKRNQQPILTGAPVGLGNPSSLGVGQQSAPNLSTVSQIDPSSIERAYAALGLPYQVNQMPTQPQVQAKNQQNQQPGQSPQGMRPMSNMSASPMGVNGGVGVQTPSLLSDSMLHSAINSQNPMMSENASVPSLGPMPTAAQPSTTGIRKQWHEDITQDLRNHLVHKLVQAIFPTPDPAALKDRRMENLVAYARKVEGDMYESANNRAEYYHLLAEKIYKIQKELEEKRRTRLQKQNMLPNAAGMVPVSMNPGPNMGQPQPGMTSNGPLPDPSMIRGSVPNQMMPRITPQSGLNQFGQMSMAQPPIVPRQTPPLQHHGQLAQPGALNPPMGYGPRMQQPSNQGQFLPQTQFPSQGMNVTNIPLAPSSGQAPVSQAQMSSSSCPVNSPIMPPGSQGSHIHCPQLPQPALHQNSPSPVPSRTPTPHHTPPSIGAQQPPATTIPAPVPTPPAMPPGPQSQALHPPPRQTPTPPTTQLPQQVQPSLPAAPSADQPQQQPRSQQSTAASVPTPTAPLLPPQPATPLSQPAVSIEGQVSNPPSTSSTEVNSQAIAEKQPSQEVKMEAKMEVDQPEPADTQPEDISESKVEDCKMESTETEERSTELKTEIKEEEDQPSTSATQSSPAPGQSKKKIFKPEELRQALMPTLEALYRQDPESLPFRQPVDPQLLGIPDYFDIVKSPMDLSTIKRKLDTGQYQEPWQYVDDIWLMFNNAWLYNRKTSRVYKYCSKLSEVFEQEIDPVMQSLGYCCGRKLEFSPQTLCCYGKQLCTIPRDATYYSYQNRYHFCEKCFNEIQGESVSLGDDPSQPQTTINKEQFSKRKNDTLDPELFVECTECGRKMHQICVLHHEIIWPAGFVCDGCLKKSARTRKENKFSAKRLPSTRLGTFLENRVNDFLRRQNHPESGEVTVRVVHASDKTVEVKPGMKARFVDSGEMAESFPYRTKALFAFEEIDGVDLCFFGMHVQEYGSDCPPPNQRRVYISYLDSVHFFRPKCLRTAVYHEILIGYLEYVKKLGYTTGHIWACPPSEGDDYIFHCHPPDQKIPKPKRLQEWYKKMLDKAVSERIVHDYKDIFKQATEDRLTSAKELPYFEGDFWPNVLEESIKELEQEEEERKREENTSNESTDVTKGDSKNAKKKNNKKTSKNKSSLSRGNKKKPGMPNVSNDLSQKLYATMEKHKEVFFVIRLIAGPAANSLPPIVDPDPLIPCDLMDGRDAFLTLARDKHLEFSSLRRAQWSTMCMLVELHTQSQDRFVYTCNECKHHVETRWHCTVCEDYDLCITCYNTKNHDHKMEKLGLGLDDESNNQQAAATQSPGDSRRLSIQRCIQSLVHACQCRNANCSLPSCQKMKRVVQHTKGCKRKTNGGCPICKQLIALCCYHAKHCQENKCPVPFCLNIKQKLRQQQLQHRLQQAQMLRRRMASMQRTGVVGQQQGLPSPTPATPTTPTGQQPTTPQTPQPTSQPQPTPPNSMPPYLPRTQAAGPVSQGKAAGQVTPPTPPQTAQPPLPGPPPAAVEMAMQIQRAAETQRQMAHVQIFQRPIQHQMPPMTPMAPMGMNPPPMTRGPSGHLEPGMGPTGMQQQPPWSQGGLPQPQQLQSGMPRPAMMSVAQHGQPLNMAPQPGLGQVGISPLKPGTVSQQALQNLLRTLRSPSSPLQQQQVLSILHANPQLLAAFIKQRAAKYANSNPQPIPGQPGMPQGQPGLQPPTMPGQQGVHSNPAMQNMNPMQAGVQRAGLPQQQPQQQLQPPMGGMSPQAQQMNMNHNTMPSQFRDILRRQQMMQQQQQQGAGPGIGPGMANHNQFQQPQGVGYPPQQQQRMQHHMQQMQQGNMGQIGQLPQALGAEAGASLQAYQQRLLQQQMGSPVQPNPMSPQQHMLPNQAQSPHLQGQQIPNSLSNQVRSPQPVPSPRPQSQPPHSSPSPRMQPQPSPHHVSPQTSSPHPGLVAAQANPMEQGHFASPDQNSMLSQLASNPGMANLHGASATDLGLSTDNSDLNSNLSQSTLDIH
Sequence of PR-A (progesterone receptor isoform A) (P06401 165-933): as the sequence (P06401 165-933, chain 1 of 3) above
Sequence of PR-A (progesterone receptor isoform A);SRC3 (steroid receptor coactivator 3) (P06401 165-933, chain 1 of 2): as the sequence (P06401 165-933, chain 1 of 3) above
Sequence of PR-A (progesterone receptor isoform A);SRC3 (steroid receptor coactivator 3) (Q9Y6Q9 whole entry, chain 2 of 2, canonical isoform): as the sequence (Q9Y6Q9 whole entry, chain 2 of 3, canonical isoform) above

B1: 32-mer PRE (progesterone response element) (dsDNA)
DNA 1: CATCTTTGAGAACAAACTGTTCTTAAAACGAG
DNA 2: CTCGTTTTAAGAACAGTTTGTTCTCAAAGATG
binds: [1] | [2] | [3] | [4] | [5] | [6]
